According to paper PMC12217647, “Mid‐Regional Proadrenomedullin Can Be Reliably Measured in Cerebrospinal Fluid to Improve Diagnosis of Central Nervous System Diseases” (Journal of Clinical Laboratory Analysis, 2025):
Values joined by “and” are separate entries in the source; they are usually repeats but may differ in a detail not shown here. Equal values may be shown once.

Key:
[1] = plasma‐EDTA, ref IFU_B.R.A.H.M.S. MR‐proADM KRYPTOR assay, 07 April 2022, cited from earlier work
Experimental: MR‐proADM concentrations were measured in CSF using the B.R.A.H.M.S. MR‐proADM fluoroimmunoassay on the Brahms Kryptor Gold Analyzer (THERMO […], Hennigsdorf, Germany), which is a fully automated homogeneous phase random access platform. The system uses the TRACE (Time‐Resolved Amplified Cryptate Emission) technology to measure the fluorescence signal emitted by an immunocomplex. MR‐proADM results are expressed in nmol/L. The declared linearity in plasma EDTA samples ranges from 0.21 to 100 nmol/L, with a maximum bias of ±20%. The manufacturer's reference range for EDTA plasma samples i ...

[2] = MR‐proADM stability in CSF samples stored at −80°C; format: in vitro ADME, human
Experimental: (§1) MR‐proADM concentrations were measured in CSF using the B.R.A.H.M.S. MR‐proADM fluoroimmunoassay on the Brahms Kryptor Gold Analyzer (THERMO […], Hennigsdorf, Germany), which is a fully automated homogeneous phase random access platform. The system uses the TRACE (Time‐Resolved Amplified Cryptate Emission) technology to measure the fluorescence signal emitted by an immunocomplex. MR‐proADM results are expressed in nmol/L. The declared linearity in plasma EDTA samples ranges from 0.21 to 100 nmol/L, with a maximum bias of ±20%. The manufacturer's reference range for EDTA plasma samples is < 0.56 nmol/L, corresponding to the 97.5th percentile of a control series, which disclosed a median value of 0.38 nmol/L. The Limit of Detection (LoD) is 0.09 nmol/L, while the Limit of Quantitation (LoQ) is 0.21 nmol/L (IFU_B.R.A.H.M.S. MR‐proADM KRYPTOR assay; 07 April 2022; Thermo Scientific, Hennigsdorf, Germany). This MR‐proADM immunoassay is currently certified only for plasma‐EDTA blood samples, and the manufacturer recommends immediate centrifugation to preserve molecular stability at room temperature (18°C–25°C) or at 2°C–8°C up to 24 h. Afterwards, samples should be aliquoted and frozen at −20°C or below. Plasma samples can be kept frozen up to 14 days, and the analyte is considered stable for up to 4 freeze/thaw cycles.
(§2) According to the recommendations in plasma, MR‐proADM was measured in clear CSF samples after centrifugation to avoid interference by cells or other microparticles. Bloody CSF samples were discarded. The first step was aimed at assessing MR‐proADM stability in CSF as a function of different storage temperatures and storage time after collection. To test room temperature stability in CSF, we measured MR‐proADM in 10 fresh samples (T0) and after 12, 24, and 48 h (T1, T2, T3) on the bench (25°C). To test recovery after storage at −20°C, we measured MR‐proADM concentration in 29 CSF samples stored frozen for less than 15, 16 to 60, and more than 60 days. Finally, to test recovery after storage at −80°C, we measured MR‐proADM concentration in 25 CSF samples before and after a variable period of storage at −80°C. The second step of our study was to evaluate the analytical performance of the B.R.A.H.M.S. MR‐proADM method using CSF samples. For this purpose, we evaluated the repeatability and the within‐laboratory precision of this assay. Due to the small amount of CSF volume obtained from each residual sample, 58 CSF samples were pooled in 3 subgroups according to their MR‐proADM values, thus creating 3 pools of about 5 mL volume each, characterized by low, medium, and high MR‐proADM concentration. These pools were finally stored at −20°C.
(§3) To assess the difference between measures of MR‐proADM in fresh samples and after storage at room temperature, at −20°C, and at −80°C, we used the Wilcoxon matched‐paired T test, considering significant p < 0.05.

[3] = MR‐proADM stability in CSF samples stored at −20°C; format: in vitro ADME, human; conditions: for Mean difference pre and post freezing: mean of samples
Experimental: as §1
as §2, with “−20°C. […]” for “−20°C.”

[4] = body fluids; statement of the introduction; cited from earlier work
[5] = MR‐proADM stability in CSF at room temperature (B.R.A.H.M.S. MR‐proADM KRYPTOR fluoroimmunoassay); format: in vitro ADME, human
Experimental: as §1, §2, §3

## Mid‐regional proADM (ELRMSSSYPTGLADVKAGPAQTLIRPQDMKGASRSPEDSSPDAARIRV; MR-proADM; UniProt P35318 45-92, looked up, fragment) [MR‐proADM]
[1]; room temperature (18°C–25°C) or 2°C–8°C
  Time of molecular stability after centrifugation: up to 24 h
[1]; −20°C or below
  Time plasma samples can be kept frozen: up to 14 days
[1]
  Freeze/thaw cycles over which the analyte is considered stable: up to 4 freeze/thaw cycles
[2]; 25 CSF samples, variable storage time at −80°C
  Stability in CSF samples stored at −80°C (in words): quite stable
[2]; CSF stored at −80°C, 25 samples
  Decrement, half of the samples: ≤ 10%
[2]; CSF stored at −80°C, p < 0.001 vs fresh
  Loss of recovery / decrement versus fresh, majority of cases: less than 10%
[2]; CSF, −80°C
  Storage time at −80°C with very good stability: at least 24 months
[2]; baseline before storage at −80°C, 25 individual CSF samples S1–S25, one line per sample
  MR‐proADM concentration, Fresh: 0.55 nmol/L and 0.56 nmol/L and 0.77 nmol/L and 0.51 nmol/L and 0.53 nmol/L and 0.59 nmol/L and 0.66 nmol/L and 0.70 nmol/L and 0.89 nmol/L and 1.00 nmol/L and 0.43 nmol/L and 0.57 nmol/L and 0.64 nmol/L and 0.69 nmol/L and 0.75 nmol/L and 0.62 nmol/L and 0.71 nmol/L and 0.73 nmol/L and 0.79 nmol/L and 0.54 nmol/L
[3]; CSF stored at −20°C for less than 15 days
  Mean difference pre and post freezing: 14.2%
[3]; CSF stored at −20°C for more than 60 days
  Mean difference pre and post freezing: 18.6%
[3]; CSF stored at −20°C from 16 to 60 days
  Mean difference pre and post freezing: 15.9%
[3]; CSF stored at −20°C, worst cases
  Percentage reduction in some samples: up to 50%
[4]
  half‐life compared with ADM (in words): longer half‐life
[5]; CSF on the bench at room temperature (25°C) for 12 h, individual samples S1–S10, one line per sample, p = 0.2918 vs fresh
  MR‐proADM concentration, After 12 h: 0.45 nmol/L and 2.67 nmol/L and 0.80 nmol/L and 1.11 nmol/L and 1.23 nmol/L and 0.91 nmol/L and 1.07 nmol/L and 0.96 nmol/L and 1.63 nmol/L
[5]; CSF on the bench at room temperature (25°C) for 24 h, individual samples S1–S10, one line per sample, p = 0.6760 vs fresh
  MR‐proADM concentration, After 24 h: 0.51 nmol/L and 2.61 nmol/L and 0.80 nmol/L and 1.15 nmol/L and 1.25 nmol/L and 0.93 nmol/L and 1.09 nmol/L and 0.92 nmol/L and 1.67 nmol/L
[5]; CSF on the bench at room temperature (25°C) for 48 h, individual samples S1–S10, one line per sample, p = 0.1515 vs fresh
  MR‐proADM concentration, After 48 h: 0.45 nmol/L and 2.74 nmol/L and 0.78 nmol/L and 1.14 nmol/L and 1.27 nmol/L and 0.93 nmol/L and 1.12 nmol/L and 0.97 nmol/L and 0.99 nmol/L and 1.64 nmol/L
[5]; CSF, 25°C, 12, 24 and 48 h, n = 10 samples, no significant difference from fresh
  Stability in CSF samples stored at room temperature (in words): highly stable
[5]; CSF, room temperature (25°C)
  Storage time at room temperature over which MR‐proADM remains highly stable in CSF: ≤ 48 h
[5]; T0 baseline, clear centrifuged CSF, 10 individual samples S1–S10, one line per sample, TRACE fluoroimmunoassay, Kryptor
  MR‐proADM concentration, Fresh: 0.45 nmol/L and 2.67 nmol/L and 0.79 nmol/L and 1.15 nmol/L and 1.23 nmol/L and 0.92 nmol/L and 1.07 nmol/L and 0.94 nmol/L and 0.98 nmol/L and 1.65 nmol/L
